Literature values, collected in publication PMC3604136.

Target: ARNT PAS-B (Homo sapiens) (UniProt P27540)
Sequence (P27540 356-470): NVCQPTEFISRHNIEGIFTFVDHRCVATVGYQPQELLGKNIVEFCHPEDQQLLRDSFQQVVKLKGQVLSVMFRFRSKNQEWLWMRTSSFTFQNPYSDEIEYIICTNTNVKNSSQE

Chain of HIF-2α PAS-B (Q99814 239-350): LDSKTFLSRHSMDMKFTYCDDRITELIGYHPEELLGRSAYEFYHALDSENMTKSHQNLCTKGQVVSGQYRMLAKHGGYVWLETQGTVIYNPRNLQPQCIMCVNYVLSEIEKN

Kd: 100 µM
Substance: HIF-2α PAS-B (from UniProt Q99814)
